# In patent publication US20250257133A1 (ADAGENE PTE, published 2025):
# Positions count from the first letter of the chain named. Numbers in names are those of the source.
# B1: TY27566 (bispecific antibody, human IgG1, kappa, N297A)
# light: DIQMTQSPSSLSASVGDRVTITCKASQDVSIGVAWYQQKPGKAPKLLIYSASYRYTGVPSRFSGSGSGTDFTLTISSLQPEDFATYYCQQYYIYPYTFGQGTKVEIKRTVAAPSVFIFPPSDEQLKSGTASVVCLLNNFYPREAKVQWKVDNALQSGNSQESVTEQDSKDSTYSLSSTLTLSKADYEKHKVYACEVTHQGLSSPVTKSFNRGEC
# heavy: EVQLVESGGGLVQPGGSLRLSCAASGFTFTDYTMDWVRQAPGKGLEWVADVNPNSGGSIYNQRFKGRFTLSVDRSKNTLYLQMNSLRAEDTAVYYCARNLGPSFYFDYWGQGTLVTVSSASTKGPSVFPLAPSSKSTSGGTAALGCLVKDYFPEPVTVSWNSGALTSGVHTFPAVLQSSGLYSLSSVVTVPSSSLGTQTYICNVNHKPSNTKVDKKVEPKSCDKTHTCPPCPAPELLGGPSVFLFPPKPKDTLMISRTPEVTCVVVDVSHEDPEVKFNWYVDGVEVHNAKTKPREEQYASTYRVVSVLTVLHQDWLNGKEYKCKVSNKALPAPIEKTISKAKGQPREPQVYTLPPSRKKLTKNQVKLTCLVKGFYPSDIAVEWESNGQPENNYKTTPPVLDCDGSFFLYSKLTVDKSRWQQGNVFSCSVMHEALHNHYTQKSLSLSPGK
# chain: DIQLTQSPSSLSASVGDRVTITCRASQSVDFHGISFLHWYQQKPGKAPKLLIYAASSLQSGVPSRFSGSGSGTDFTLTISSLQPEDFATYYCQQSYRSPRTFGQGTKVEIKGGGGSGGGGSGGGGSGGGGSEVQLVESGGGLVQPGGSLRLSCAASGFSLSTGGVGVSWIRQAPGKGLEWIGEIYHSGSTYYSPSLKSRVTISRDNSKNTLYLQLNSLRAEDTAVYYCARYEYYYYDFDYWGQGTLVTVSSEPKSSDKTHTCPPCPAPELLGGPSVFLFPPKPKDTLMISRTPEVTCVVVDVSHEDPEVKFNWYVDGVEVHNAKTKPREEQYASTYRVVSVLTVLHQDWLNGKEYKCKVSNKALPAPIEKTISKAKGQPREPQVYTDPPSRDELTKNQVSLTCLVDGFYPSDIAVEWESNGQPENCYKTTPPVLDSDGSFFLYSKLTVDKSRWQQGNVFSCSVMHEALHNHYTQDSLSLSPGK
# notes: also called anti-HER2xCD28 BsAb; TY27566 (WT)
# B2: TY28652 (bispecific antibody, human IgG1, kappa, N297A)
# light: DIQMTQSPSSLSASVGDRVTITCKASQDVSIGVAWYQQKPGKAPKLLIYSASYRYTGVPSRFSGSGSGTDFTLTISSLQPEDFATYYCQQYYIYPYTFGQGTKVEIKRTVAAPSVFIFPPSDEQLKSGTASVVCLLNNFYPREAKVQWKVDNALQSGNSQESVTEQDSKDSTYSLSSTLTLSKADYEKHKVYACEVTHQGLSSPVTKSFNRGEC
# heavy: B1 heavy
# chain: B1 chain with H32Y, I34K, Q59E, R100P, E183S, S193N, Y234D, D237A
# notes: anti-HER2 Fab x CD28 scFv BC8227 (VL-VH)-Fc
# B3: TY28653 (bispecific antibody, human IgG1, kappa, N297A)
# light: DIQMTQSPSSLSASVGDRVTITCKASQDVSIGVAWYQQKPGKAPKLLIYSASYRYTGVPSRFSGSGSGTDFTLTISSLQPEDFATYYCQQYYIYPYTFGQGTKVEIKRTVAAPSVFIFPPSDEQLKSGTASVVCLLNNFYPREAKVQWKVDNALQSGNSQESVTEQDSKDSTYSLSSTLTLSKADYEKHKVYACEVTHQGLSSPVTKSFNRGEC
# heavy: B1 heavy
# chain: B1 chain with H32Y, S98T, R100P, E183S, S193N, Y234G, D237A, F238L
# notes: anti-HER2 Fab x CD28 scFv BC8228 (VL-VH)-Fc
# B4: TY28654 (bispecific antibody, human IgG1, kappa, N297A)
# light: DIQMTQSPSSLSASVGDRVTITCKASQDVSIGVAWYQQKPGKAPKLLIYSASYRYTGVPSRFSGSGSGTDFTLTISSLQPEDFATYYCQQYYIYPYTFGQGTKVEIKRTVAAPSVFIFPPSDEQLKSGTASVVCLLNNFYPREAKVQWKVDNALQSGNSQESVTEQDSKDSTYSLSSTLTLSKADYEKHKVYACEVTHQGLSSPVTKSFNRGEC
# heavy: B1 heavy
# chain: B1 chain with H32Y, I34K, S98T, R100L, G163S, E183S, S193N, Y234G, D237A
# notes: anti-HER2 Fab x CD28 scFv BC8230 (VL-VH)-Fc
# B5: TY28655 (bispecific antibody, human IgG1, kappa, N297A)
# light: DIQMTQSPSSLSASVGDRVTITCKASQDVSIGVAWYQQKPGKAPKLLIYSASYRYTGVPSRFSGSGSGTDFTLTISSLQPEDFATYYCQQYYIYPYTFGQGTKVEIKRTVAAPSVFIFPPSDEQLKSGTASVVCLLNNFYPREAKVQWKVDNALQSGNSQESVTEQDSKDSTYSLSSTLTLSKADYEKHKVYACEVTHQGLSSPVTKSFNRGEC
# heavy: B1 heavy
# chain: B1 chain with H32Y, S98T, G163S, E183S, S193N, Y234D, D237A
# notes: anti-HER2 Fab x CD28 scFv BC8233 (VL-VH)-Fc
# B6: TY28656 (bispecific antibody, human IgG1, kappa, N297A)
# light: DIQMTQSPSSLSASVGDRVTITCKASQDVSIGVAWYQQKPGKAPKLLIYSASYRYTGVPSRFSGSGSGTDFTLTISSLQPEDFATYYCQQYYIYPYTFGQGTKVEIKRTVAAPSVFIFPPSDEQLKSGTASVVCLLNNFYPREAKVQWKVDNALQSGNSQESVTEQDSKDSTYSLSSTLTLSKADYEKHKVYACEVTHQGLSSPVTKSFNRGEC
# heavy: B1 heavy
# chain: B1 chain with H32Y, I34K, S98T, G163S, S168G, Y191N, S193N, Y234G, D237A, F238L
# notes: anti-HER2 Fab x CD28 scFv BC8235 (VL-VH)-Fc
# B7: TY28657 (bispecific antibody, human IgG1, kappa, N297A)
# light: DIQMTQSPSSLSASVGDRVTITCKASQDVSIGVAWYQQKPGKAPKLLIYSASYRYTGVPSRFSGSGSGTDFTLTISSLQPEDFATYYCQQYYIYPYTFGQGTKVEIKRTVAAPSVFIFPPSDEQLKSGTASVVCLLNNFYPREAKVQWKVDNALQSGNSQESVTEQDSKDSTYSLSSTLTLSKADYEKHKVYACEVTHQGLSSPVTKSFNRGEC
# heavy: B1 heavy
# chain: B1 chain with Q59E, S98T, S168G, S193N, Y234G, D237A
# notes: anti-HER2 Fab x CD28 scFv BC8237 (VL-VH)-Fc
# B8: TY28658 (bispecific antibody, human IgG1, kappa, N297A)
# light: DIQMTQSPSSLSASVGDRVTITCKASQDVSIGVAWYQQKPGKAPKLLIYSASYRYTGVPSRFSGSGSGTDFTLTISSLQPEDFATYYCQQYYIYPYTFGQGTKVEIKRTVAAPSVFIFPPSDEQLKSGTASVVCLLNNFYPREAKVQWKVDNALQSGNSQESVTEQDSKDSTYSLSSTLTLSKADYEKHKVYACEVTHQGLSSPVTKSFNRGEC
# heavy: B1 heavy
# chain: B1 chain with H32Y, I34K, Q59E, R100L, G163S, S168G, E183S, S193N, Y234D
# notes: anti-HER2 Fab x CD28 scFv BC8240 (VL-VH)-Fc
# B9: TY28659 (bispecific antibody, human IgG1, kappa, N297A)
# light: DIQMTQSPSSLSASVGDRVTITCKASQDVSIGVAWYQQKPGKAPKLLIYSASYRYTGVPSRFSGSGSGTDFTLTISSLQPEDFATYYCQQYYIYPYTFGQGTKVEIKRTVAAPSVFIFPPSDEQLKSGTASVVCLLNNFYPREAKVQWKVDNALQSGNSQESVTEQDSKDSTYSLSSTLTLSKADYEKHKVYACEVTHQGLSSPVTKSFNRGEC
# heavy: B1 heavy
# chain: B1 chain with G163S, S193N, Y234G, D237A
# notes: anti-HER2 Fab x CD28 scFv BC8242 (VL-VH)-Fc
# B10: TY28660 (bispecific antibody, human IgG1, kappa, N297A)
# light: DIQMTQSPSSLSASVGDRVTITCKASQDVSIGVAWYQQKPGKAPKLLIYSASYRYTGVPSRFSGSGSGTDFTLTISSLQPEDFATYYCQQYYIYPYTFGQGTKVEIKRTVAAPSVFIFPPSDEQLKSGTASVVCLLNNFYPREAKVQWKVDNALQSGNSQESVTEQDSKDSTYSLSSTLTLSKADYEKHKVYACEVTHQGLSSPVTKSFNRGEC
# heavy: B1 heavy
# chain: B1 chain with I34K, G163S, Y235S, D237A
# notes: anti-HER2 Fab x CD28 scFv BC8257 (VL-VH)-Fc
# B11: TY28661 (bispecific antibody, human IgG1, kappa, N297A)
# light: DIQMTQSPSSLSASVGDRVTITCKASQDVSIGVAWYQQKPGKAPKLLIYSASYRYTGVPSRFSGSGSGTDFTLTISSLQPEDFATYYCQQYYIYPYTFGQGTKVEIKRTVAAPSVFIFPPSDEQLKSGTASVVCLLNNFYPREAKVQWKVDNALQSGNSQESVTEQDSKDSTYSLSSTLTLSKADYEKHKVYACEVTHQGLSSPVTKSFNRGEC
# heavy: B1 heavy
# chain: B1 chain with H32Y, Q59E, S98T, R100L, E183S, Y234D, D237A
# notes: anti-HER2 Fab x CD28 scFv BC8263 (VL-VH)-Fc
# B12: TY29109 (bispecific antibody, human IgG1, kappa, N297A)
# light: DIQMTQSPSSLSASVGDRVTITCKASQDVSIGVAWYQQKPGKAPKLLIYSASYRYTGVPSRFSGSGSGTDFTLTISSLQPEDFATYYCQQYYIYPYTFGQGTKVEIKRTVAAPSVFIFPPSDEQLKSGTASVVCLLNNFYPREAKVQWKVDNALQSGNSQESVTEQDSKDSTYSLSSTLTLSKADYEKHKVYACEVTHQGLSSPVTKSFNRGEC
# heavy: B1 heavy
# chain: EVQLVESGGGLVQPGGSLRLSCAASGFSLSTGGVGVSWIRQAPGKGLEWIGEIYHSGSTYYSPSLKSRVTISRDNSKNTLYLQLNSLRAEDTAVYYCARYEYYYYDFDYWGQGTLVTVSSGGGGSGGGGSGGGGSGGGGSDIQLTQSPSSLSASVGDRVTITCRASQSVDFHGISFLHWYQQKPGKAPKLLIYAASSLQSGVPSRFSGSGSGTDFTLTISSLQPEDFATYYCQQSYRSPRTFGQGTKVEIKEPKSSDKTHTCPPCPAPELLGGPSVFLFPPKPKDTLMISRTPEVTCVVVDVSHEDPEVKFNWYVDGVEVHNAKTKPREEQYASTYRVVSVLTVLHQDWLNGKEYKCKVSNKALPAPIEKTISKAKGQPREPQVYTDPPSRDELTKNQVSLTCLVDGFYPSDIAVEWESNGQPENCYKTTPPVLDSDGSFFLYSKLTVDKSRWQQGNVFSCSVMHEALHNHYTQDSLSLSPGK
# notes: anti-HER2 Fab x CD28 scFv WT (VH-VL)-Fc; also called TY29109 (WT)
# B13: TY29306 (bispecific antibody, human IgG1, kappa, N297A)
# light: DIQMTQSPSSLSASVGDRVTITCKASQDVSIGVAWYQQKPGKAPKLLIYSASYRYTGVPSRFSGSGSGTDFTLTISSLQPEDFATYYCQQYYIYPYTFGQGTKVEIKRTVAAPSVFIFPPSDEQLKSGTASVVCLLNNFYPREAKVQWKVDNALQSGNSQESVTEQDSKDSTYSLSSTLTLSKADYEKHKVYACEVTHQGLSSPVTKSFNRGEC
# heavy: B1 heavy
# chain: B12 chain with E52S, S62N, Y103D, D106A, H172Y, I174K, Q199E, R240P
# notes: anti-HER2 Fab x CD28 scFv BC8227 (VH-VL)-Fc
# B14: TY29307 (bispecific antibody, human IgG1, kappa, N297A)
# light: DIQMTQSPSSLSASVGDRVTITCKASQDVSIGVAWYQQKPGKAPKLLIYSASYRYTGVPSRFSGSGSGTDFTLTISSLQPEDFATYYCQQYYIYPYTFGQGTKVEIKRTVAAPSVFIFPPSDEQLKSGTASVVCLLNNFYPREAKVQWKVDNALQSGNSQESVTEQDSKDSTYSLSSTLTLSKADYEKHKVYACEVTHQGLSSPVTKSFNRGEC
# heavy: B1 heavy
# chain: B12 chain with E52S, S62N, Y103G, D106A, F107L, H172Y, S238T, R240P
# notes: anti-HER2 Fab x CD28 scFv BC8228 (VH-VL)-Fc
# B15: TY29308 (bispecific antibody, human IgG1, kappa, N297A)
# light: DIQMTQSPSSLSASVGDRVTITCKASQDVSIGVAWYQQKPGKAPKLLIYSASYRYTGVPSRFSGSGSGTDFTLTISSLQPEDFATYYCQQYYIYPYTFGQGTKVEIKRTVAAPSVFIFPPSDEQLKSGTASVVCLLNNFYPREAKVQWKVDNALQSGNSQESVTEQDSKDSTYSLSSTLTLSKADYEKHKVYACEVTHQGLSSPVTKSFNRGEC
# heavy: B1 heavy
# chain: B12 chain with G32S, E52S, S62N, Y103G, D106A, H172Y, I174K, S238T, R240L
# notes: anti-HER2 Fab x CD28 scFv BC8230 (VH-VL)-Fc
# B16: TY29309 (bispecific antibody, human IgG1, kappa, N297A)
# light: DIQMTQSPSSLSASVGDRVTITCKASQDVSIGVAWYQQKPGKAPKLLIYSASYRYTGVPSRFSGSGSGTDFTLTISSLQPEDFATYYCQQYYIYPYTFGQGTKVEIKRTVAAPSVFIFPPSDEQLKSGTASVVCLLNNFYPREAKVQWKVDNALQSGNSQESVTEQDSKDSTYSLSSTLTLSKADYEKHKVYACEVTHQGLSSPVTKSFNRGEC
# heavy: B1 heavy
# chain: B12 chain with G32S, E52S, S62N, Y103D, D106A, H172Y, S238T
# notes: anti-HER2 Fab x CD28 scFv BC8233 (VH-VL)-Fc
# B17: TY29310 (bispecific antibody, human IgG1, kappa, N297A)
# light: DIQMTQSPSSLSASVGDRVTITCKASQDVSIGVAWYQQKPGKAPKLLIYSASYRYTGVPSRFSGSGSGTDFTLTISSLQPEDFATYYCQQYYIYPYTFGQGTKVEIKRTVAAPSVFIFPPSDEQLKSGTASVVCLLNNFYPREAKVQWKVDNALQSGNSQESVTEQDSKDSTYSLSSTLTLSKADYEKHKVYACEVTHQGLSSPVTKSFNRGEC
# heavy: B1 heavy
# chain: B12 chain with G32S, S37G, Y60N, S62N, Y103G, D106A, F107L, H172Y, I174K, S238T
# notes: anti-HER2 Fab x CD28 scFv BC8235 (VH-VL)-Fc
# B18: TY29311 (bispecific antibody, human IgG1, kappa, N297A)
# light: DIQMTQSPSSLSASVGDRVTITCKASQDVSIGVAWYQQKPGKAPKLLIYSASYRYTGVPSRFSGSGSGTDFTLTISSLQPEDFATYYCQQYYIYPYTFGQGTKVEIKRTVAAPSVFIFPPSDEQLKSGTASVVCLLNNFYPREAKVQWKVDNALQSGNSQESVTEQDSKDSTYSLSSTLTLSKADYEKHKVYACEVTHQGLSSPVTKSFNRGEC
# heavy: B1 heavy
# chain: B12 chain with S37G, S62N, Y103G, D106A, Q199E, S238T
# notes: anti-HER2 Fab x CD28 scFv BC8237 (VH-VL)-Fc
# B19: TY29312 (bispecific antibody, human IgG1, kappa, N297A)
# light: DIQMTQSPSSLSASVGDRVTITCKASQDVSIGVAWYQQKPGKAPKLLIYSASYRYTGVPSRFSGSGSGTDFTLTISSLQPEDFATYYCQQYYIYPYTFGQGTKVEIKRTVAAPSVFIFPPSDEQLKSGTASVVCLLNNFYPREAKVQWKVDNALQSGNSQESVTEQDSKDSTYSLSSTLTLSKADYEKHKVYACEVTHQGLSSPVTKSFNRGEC
# heavy: B1 heavy
# chain: B12 chain with G32S, S37G, E52S, S62N, Y103D, H172Y, I174K, Q199E, R240L
# notes: anti-HER2 Fab x CD28 scFv BC8240 (VH-VL)-Fc
# B20: TY29313 (bispecific antibody, human IgG1, kappa, N297A)
# light: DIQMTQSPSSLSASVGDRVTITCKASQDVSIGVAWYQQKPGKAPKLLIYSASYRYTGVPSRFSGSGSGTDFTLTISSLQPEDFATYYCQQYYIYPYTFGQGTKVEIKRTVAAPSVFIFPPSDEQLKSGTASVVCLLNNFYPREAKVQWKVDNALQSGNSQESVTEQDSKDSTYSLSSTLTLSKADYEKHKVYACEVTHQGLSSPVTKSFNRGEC
# heavy: B1 heavy
# chain: B12 chain with G32S, S62N, Y103G, D106A
# notes: anti-HER2 Fab x CD28 scFv BC8242 (VH-VL)-Fc
# B21: TY29314 (bispecific antibody, human IgG1, kappa, N297A)
# light: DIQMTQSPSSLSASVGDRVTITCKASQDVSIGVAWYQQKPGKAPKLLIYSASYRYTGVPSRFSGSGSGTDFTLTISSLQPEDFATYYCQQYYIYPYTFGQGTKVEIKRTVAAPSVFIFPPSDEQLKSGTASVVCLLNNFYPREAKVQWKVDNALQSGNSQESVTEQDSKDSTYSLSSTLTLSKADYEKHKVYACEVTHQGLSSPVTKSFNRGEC
# heavy: B1 heavy
# chain: B12 chain with G32S, Y104S, D106A, I174K
# notes: anti-HER2 Fab x CD28 scFv BC8257 (VH-VL)-Fc
# B22: TY29315 (bispecific antibody, human IgG1, kappa, N297A)
# light: not shown
# heavy: B1 heavy
# chain: B12 chain with E52S, Y103D, D106A, H172Y, Q199E, S238T, R240L
# notes: anti-HER2 Fab x CD28 scFv BC8263 (VH-VL)-Fc
# B23: TY24881 (antibody, human IgG4 S228P, kappa, V domains shown)
# VH: QVQLVQSGAEVKKPGSSVKVSCKASGFSLSTGGVGVTWIRQAPGQGLEWIGSIYHSGSTYYSPSLKSRVTITADKSTSTAYMELSSLRSEDTAVYYCARYDYGYYSFDVWGQGTLVTVSS
# VL: DIQLTQSPSSLSASVGDRVTITCRASQSVDFDAFSFLAWYQQKPGKAPKLLIYAASTLQSGVPSRFSGSGSGTDFTLTISSLQPEDFATYYCQQSYSASTFGQGTKVEIKR
# notes: hIgG4/S241P
# B24: TY24854 (antibody, human IgG4 S228P, kappa, V domains shown)
# VH: EVQLVESGGGLVQPGGSLRLSCAASGYSITSGYHWGWIRQAPGKGLEWIGEIYHSGSTYYSPSLKSRVTISRDNSKNTLYLQLNSLRAEDTAVYYCARRRGDGYFDFWGQGTLVTVSS
# VL: DIQLTQSPSSLSASVGDRVTITCRASQSVDFLGISFLHWYQQKPGKAPKLLIYDASNRATGIPSRFSGSGSGTDFTLTISSLQPEDFATYYCQQSYRTPLTFGQGTKVEIKR
# notes: hIgG4/S241P
# B25: TY24864 (antibody, human IgG4 S228P, kappa, V domains shown)
# VH: EVQLVESGGGLVQPGGSLRLSCAASGFSLSTSGVGVSWIRQAPGKGLEWIGAIYHSGSTYYSPSLKSRVTISRDNSKNTLYLQLNSLRAEDTAVYYCARYGYSYYAFDYWGQGTLVTVSS
# VL: DIQLTQSPSSLSASVGDRVTITCRASQTIGSFLNWYQQKPGKAPKLLIYDASSLESGVPSRFSGSGSGTDFTLTISSLQPEDFATYYCQQSYSYQTFGQGTKVEIKR
# notes: hIgG4/S241P
# B26: TY24855 (antibody, human IgG4 S228P, kappa, V domains shown)
# VH: EVQLVESGGGLVQPGGSLRLSCAASGYSITSGHHWSWIRQAPGKGLEWIGDIYHSGSTYYNPSLKSRVTISRDNSKNTLYLQLNSLRAEDTAVYYCARKDDYYAFDYWGQGTLVTVSS
# VL: B24 VL with S26P, L32H, I34K, T98S, L100I
# notes: hIgG4/S241P
# B27: TY24871 (antibody, human IgG4 S228P, kappa, V domains shown)
# VH: QVQLVQSGAEVKKPGSSVKVSCKASGFTFSSYAIHWVRQAPGQGLEWIGSIYHSGSTYYSPSLKSRVTITADKSTSTAYMELSSLRSEDTAVYYCARDVYGSYALDVWGQGTLVTVSS
# VL: B24 VL with L32D, N57S, R58L, A59E, T60S, I62V, T98S, L100I
# notes: hIgG4/S241P
# Target: Human CD28 (ELISAs of Examples 4 and 13) (human, UniProt P10747 19-152, limits assumed)
# Experiment: ELISA
row,Binder,EC50 [nM]
1,B1,3.89
2,B2,3.68
3,B3,7.3
4,B4,68.4
5,B5,8.14
6,B6,128
7,B7,5.29
8,B8,78
9,B9,0.954
10,B10,3.77
11,B11,52.6
12,B12,30.3
13,B13,9.27
14,B14,27.8
15,B15,417
16,B16,27.7
17,B17,349
18,B18,91.3
19,B19,624
20,B20,6.97
21,B21,27.5
22,B22,291

# Target: T1, His-tagged human CD28 protein (human, UniProt P10747 19-152)
# T1 construct: not shown: His tag
# Experiment: Octet BLI, mAb captured;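 note: Anti-human Fc biosensors captured the antibodies, then His-tagged protein analytes at 100 nM associated for 300 s and dissociated for 300 s, fitted by a 1:1 Langmuir model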
Binder,Kd [nM],koff [s⁻¹],kon [M⁻¹ s⁻¹]
B23,5.25,0.000662,126000
B24,5.43,0.000353,64900
B25,4.41,0.000416,94200
B26,7.93,0.000628,79200
B27,4.99,0.00035,70100

# Target: T2, His-tagged human CTLA4 protein (human, UniProt P16410 36-161, limits assumed)
# T2 construct: not shown: His tag
# Experiment: Octet BLI, mAb captured;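 note: Anti-human Fc biosensors captured the antibodies, then His-tagged protein analytes at 100 nM associated for 300 s and dissociated for 300 s, fitted by a 1:1 Langmuir model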
# T2 sequence (P16410 36-161 limits assumed): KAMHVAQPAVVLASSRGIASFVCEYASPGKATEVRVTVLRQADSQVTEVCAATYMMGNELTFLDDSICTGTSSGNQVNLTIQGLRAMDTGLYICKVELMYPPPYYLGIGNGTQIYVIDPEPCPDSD
Binder,Kd [nM],koff [s⁻¹],kon [M⁻¹ s⁻¹]
B23,2.35,0.00262,1.11e+06
B25,5.5,0.00284,517000
B26,4.02,0.00305,760000

# Target: T3, Human CD28 on cells (human, UniProt P10747 19-220)
# T3 construct: Jurkat E6-1 cells, primary human T cells, or transfected HEK293F cells; also called CD28 on Jurkat cells; CD28 on human CD3+ T cells
# Experiment: flow cytometry, Jurkat cells
# Experimental: Next, the cells were washed twice with DPBS and further incubated with a APC-anti-human IgG Fc secondary antibody (1 μg/mL, 100 μL/well, Biolegend) for 30 minutes at 4° C. Finally, the cells were washed twice with DPBS and suspended in FACS buffer for flow cytometry analysis. For analysis, the Mean Fluorescence Intensity (MFI) values versus concentrations were plotted using FlowJo 10 software (FlowJo LLC) and the data were further fitted with four-parameter non-linear regression to obtain EC₅₀ values by GraphPad Prism version 7 for Windows, GraphPad Software, La Jolla California USA, www.graphpad.com.
row,Binder,EC50 [nM]
1,B23,0.38
2,B24,0.6
3,B25,0.54
4,B26,0.61
5,B27,0.89
